Broadly, the EC50 is the concentration at which the effect is half-maximal. A word on the IC50: it is the midpoint of a concentration-inhibition curve. The term Kd denotes the constant that tells how readily two partners part at equilibrium.

Positions count from the first letter of the chain named. Read-outs that look alike come from different tables or passages of the source.

Assay [1] deals with T1, biotin-labeled human PD-1 Fc protein (human, biotin-labeled (site not stated)).
T1 construct: also called PD-1-Fc-biotin
Description: capture ELISA, antibody captured on plate, biotin-labeled human PD-1 Fc in solution. The method, then:
(§1) Plates were washed 4 times with wash buffer (PBS+0.05% Tween-20, PBST) and then blocked with 200 μl/well blocking buffer (5% w/v non-fatty milk in PBST) for 2 hours at 37° C. […] After a final wash, plates were incubated with 100 μl/well ELISA substrate TMB (Innoreagents). The reaction was stopped in 15 minutes at 25° C. with 50 μl/well 1M H₂SO₄, and the absorbance was read at 450 nm. Data were analyzed using Graphpad Prism software and EC₅₀ values were reported.
(In general: An ELISA detects its analyte on a solid surface through an enzyme-linked reagent.)

For assay [2], the target named is T1, biotin-labeled human PD-1 Fc protein. The description is as above. On the procedure: as §1
The source holds these as a separate data set.

Assay [3] has the same target. The description is as above. The method, then:
as §1
This is another data set of the same source.

Assay [4] shares this target. The description is as above. The method, then:
as §1
The source holds these as a separate data set.

Assay [5] has the same target. The description is as above. On the procedure:
as §1
This is another data set of the same source.

For assay [6] the target is unchanged. As to the kind of experiment: competition ELISA, antibody + biotin human PD-1-Fc on coated human PD-L1-Fc (competitor PD-L1-Fc). The method, then: (§2) The next day, plates were washed with wash buffer (PBS+0.05% Tween-20, PBST), and blocked with 5% non-fatty milk in PBST for 2 hours at 37° C. Plates were then washed again using wash buffer.
(§3) After incubation at 37° C. for 40 minutes, plates were washed for 4 times using wash buffer. […] Plates were washed again using wash buffer. Finally, TMB was added and the reaction was stopped using 1M H₂SO₄, and the absorbance was read at 450 nm. Data were analyzed using Graphpad Prism software and IC₅₀ values were reported.

For assay [7] the target is unchanged. Description: competition ELISA, antibody + biotin human PD-1 Fc on coated Nivolumab (competitor Nivolumab). The method, then:
(§4) The next day, plates were washed with wash buffer, and blocked with 5% non-fatty milk in PBST for 2 hours at 37° C. […] Plates were finally washed using wash buffer. TMB was added and the reaction was stopped using 1M H₂SO₄, and the absorbance was read at 450 nm. Data were analyzed using Graphpad Prism software and IC₅₀ values were reported.

Assay [8] shares this target. Description: capture ELISA, antibody captured on plate, biotin-labeled human PD-1 Fc in solution. The method, then:
as §1
The source holds these as a separate data set.

Assay [9] has the same target. The description is as above. On the procedure: as §1
This is another data set of the same source.

In assay [10] the target is T2, recombinant human PD-1-his (Sino biological, #10377-H08H) (human, UniProt Q15116 25-167).
T2 construct: Bought protein; also called Human PD-1-his protein; not shown: his tag
Description: SPR (Biacore), antibody captured, human PD-1-his flowed. An excerpt:
(§5) Briefly, goat anti-mouse IgG (GE healthcare, Cat #BR100839, Human Antibody Capture Kit) was covalently linked to a CMS chip (carboxy methyl dextran coated chip) via primary amines, using a standard amine coupling kit (GE healthcare, Pittsburgh, Pa., USA) provided by Biacore. Un-reacted moieties on the biosensor surface were blocked with ethanolamine. […] Then, recombinant human PD-1-his (Sino biological, #10377-H08H) or cynomolgus monkey PD-1-his protein (Acro biosystems, #PD-1-05223) in HBS EP buffer (provided by Biacore) was flowed onto the chip at a flow rate of 30 μL/min. The antigen-antibody association kinetics was followed for 2 minutes and the dissociation kinetics was followed for 10 minutes. The association and dissociation curves were fit to a 1:1 Langmuir binding model using BIA evaluation software.
(In SPR one partner is held on a chip, and binding of the other changes the refractive index at the surface.)

Assay [11] addresses T3, cynomolgus monkey PD-1-his protein (Acro biosystems, #PD-1-05223) (cynomolgus monkey, UniProt B0LAJ3 25-170).
T3 construct: Bought protein; also called Cynomolgus PD-1; Cynomolgus PD1
Description: SPR (Biacore), antibody captured, cynomolgus PD-1-his flowed.
Text: as §5

The target of assay [12] is T1, biotin-labeled human PD-1 Fc protein. Description: competition ELISA, antibody + biotin human PD-1 Fc on coated Nivolumab (competitor Nivolumab). On the procedure:
as §4
This is another data set of the same source.

For assay [13], the target named is T4, human PD-1 on PD-1 Effector Cell Line (Genscript, GS-J2/PD-1) (human, UniProt Q15116 25-288). Description: cell-based or functional assay.
The target of assay [14] is T4, human PD-1 on PD-1 Effector Cell Line …. Description: cell-based or functional assay. The source holds these as a separate data set.
The target in assay [15] is T1, biotin-labeled human PD-1 Fc protein. As to the kind of experiment: competition ELISA, antibody + biotin human PD-1-Fc on coated human PD-L1-Fc (competitor PD-L1-Fc). The method, then: as §2, §3
The source holds these as a separate data set.

Assay [16] has the same target. Description: capture ELISA, antibody captured on plate, biotin-labeled human PD-1 Fc in solution. On the procedure: as §1
The source holds these as a separate data set.

The target is the same in assay [17]. As to the kind of experiment: competition ELISA, antibody + biotin human PD-1 Fc on coated Nivolumab (competitor Nivolumab). The method, then:
as §4
The source holds these as a separate data set.

B1: Nivolumab (OPDIVO®) (antibody, V domains shown)
VH: QVQLVESGGGVVQPGRSLRLDCKASGITFSNSGMHWVRQAPGKGLEWVAVIWYDGSKRYYADSVKGRFTISRDNSKNTLFLQMNSLRAEDTAVYYCATNDDYWGQGTLVTVSS
VL: EIVLTQSPATLSLSPGERATLSCRASQSVSSYLAWYQQKPGQAPRLLIYDASNRATGIPARFSGSGSGTDFTLTISSLEPEDFAVYYCQQSSNWPRTFGQGTKVEIK
Consider B1, for which the EC50 in [1] worked out at 0.268 ng/mL; in assay [2] it was 0.27 ng/mL; in [3], 0.21 nM; in assay [4] it was 0.351 ng/mL; in assay [5], 0.45 nM; in [8] it was 0.365 ng/mL. Besides, the EC50 in [9] is 1.37 ng/mL. In addition, the IC50 is 0.42 nM in [6] and 3.79 nM in assay [7].

B2: huD2H3-V12 (antibody, human IgG1, kappa, V domains shown)
VH: EVQLVQSGAEVKKPGSSVKVSCKASGYTFTNYWMHWVRQAPGQGLEWMGAIFPRNSETNYNQKFKARVTITADESTSTAYMELSSLRSEDTAVYYCTRNRYGLDYWGQGTLVTVSS
VL: DIVLTQSPDSLAVSLGERATINCRASESVSLHGTRLMHWYQQKPGQPPKLLISLGSNLESGVPDRFSGSGSETDFTLTISSLQAEDVAVYFCQQSIEDPWTFGQGTKLEIKR
notes: Humanized D2H3, human IgG1/kappa; also called huPD1-D2H3-V12
For the molecule B2, in assay [9], the half-maximal effective concentration (EC50) is 0.354 ng/mL.

B3: huD2H3-V14 (antibody, human IgG1, kappa, V domains shown)
VH: B2 VH
VL: B2 VL with L4M, S53Y, E72G, F91Y
notes: Humanized D2H3, human IgG1/kappa
Take B3: the Kd is 0.308 nM in assay [10] and 1.5 nM in assay [11]. The EC50 in [5] came to 0.17 nM; in assay [9], 0.531 ng/mL. The results for the IC50 in assay [6] and in assay [12] were 0.68 nM and 0.18 nM, respectively. In addition, in assay [13], the “Cell-based functional assay (EC50, nM)” value came out at 7.11 nM.

B4: chimeric D2H3 antibody (antibody, human IgG1, kappa, V domains shown)
VH: EVQLQQSGTVLARPGASVKMSCKSSGYTFTNYWMHWVKQRPGQGLEWIGAIFPRNSETNYNQKFKAKAKLTAVTSASTAYMEVSSLTSEDSAVYFCTRNRYGLDYWGQGTSVTVSS
VL: DIVLTQSPGFLAVSLGQRATISCRASESVSLHGTRLMHWYHQKPGQPPKLLISLGSNLESGVPARFSGSGSETDFTLNIHPVEEEDAATYFCQQSIEDPWTFGGGTKLEIKR
notes: Mouse variable domains cloned in frame to human IgG1 and kappa constant regions; also called chD2H3
In the case of B4, the Kd in [10] amounted to 0.441 nM; in [11] it was 1.78 nM. For the same molecule, the “Cell-based functional reporter assay (IC50, nM)” value in assay [14] was 5.36 nM. In addition, the 50% inhibitory concentration (IC50) in assay [15] worked out at 0.74 nM; in [6] it was 0.74 nM; in assay [12] it was 0.19 nM; in [17] it was 0.19 nM. Further, the EC50 in assay [2] worked out at 1.04 ng/mL; in assay [5], 0.17 nM; in assay [8] it was 1.51 ng/mL; in assay [9], 0.31 ng/mL; in assay [16] it was 0.17 nM. The “Cell-based functional assay (EC50, nM)” value in assay [13] was 5.36 nM.

B5: huD2A4-V5 (antibody, human IgG1, kappa)
heavy: not shown
light: DIQMTQSPSSVSASVGDRVTITCLASQTIGTWLAWYQQKPGKSPKLLIYAATSLADGVPSRFSGSGSGTDFTLTISSLQPEDFATYYCQQVSSIPWTFGGGTKVEIKRTVAAPSVFIFPPSDEQLKSGTASVVCLLNNFYPREAKVQWKVDNALQSGNSQESVTEQDSKDSTYSLSSTLTLSKADYEKHKVYACEVTHQGLSSPVTKSFNRGEC
notes: Humanized D2A4, human IgG1/kappa
Molecule B5 had an EC50 in [1] of 0.773 ng/mL.

B6: huD2A4-V6 (antibody, human IgG1, kappa, V domains shown)
VH: EVQLVESGGGLVQPGGSLRLSCAASGFTFSSYTMSWVRQAPGKGLEWVSTISGGGSNTYYPDSVKGRFTISRDNSKNTLYLQMNSLRAEDTAVYYCARQAFYSNYWYFDVWGKGTTVTVSS
VL: DIQMTQSPSSVSASVGDRVTITCLASQTIGTWLAWYQQKPGKAPKLLIYAATSLADGVPSRFSGSGSGTDFTLTISSLQPEDFATYYCQQVSSIPWTFGGGTKVEIKR
notes: as for B5
For B6, the Kd turned out to be 3.06 nM in [10] and 6.43 nM in [11]. Moreover, the EC50 in assay [1] was 0.999 ng/mL; in assay [5], 0.27 nM. The IC50 in assay [6] amounted to 1.69 nM; in assay [12], 0.49 nM. The “Cell-based functional assay (EC50, nM)” value in assay [13] was determined as 7.6 nM.

B7: chimeric D2A4 antibody (antibody, human IgG1, kappa, V domains shown)
VH: EVKLVESGGGLVKPGGSLKLSCAASGFTFSSYTMSWVRQTPAKRLEWVATISGGGSNTYYPDSVKGRFTISRDNARNTLYLQMSSLRSEDTAMYYCARQAFYSNYWYFDVWGAGTTVTVSS
VL: DIQMTQSPASQSASLGESVTITCLASQTIGTWLAWYQQTPGKSPQLLIYAATSLADGVPSRFSGSGSGTKFSFKISSLQAEDFASYYCQQVSSIPWTFGGGTKLEIRR
notes: Mouse variable domains cloned in frame to human IgG1 and kappa constant regions; also called chD2A4; ChD2A4
With B7, the “Cell-based functional reporter assay (IC50, nM)” value in [14] amounted to 9.46 nM. The IC50 in assay [15] was found to be 1.71 nM; in [6], 1.71 nM; in assay [12], 0.35 nM; in [17], 0.35 nM. The EC50 in assay [1] was 0.773 ng/mL; in assay [4], 0.681 ng/mL; in assay [5] it was 0.24 nM; in assay [16], 0.24 nM. For the same molecule, in assay [13], the “Cell-based functional assay (EC50, nM)” value stood at 9.46 nM.

The values are drawn from patent US20210095032A1 (SALUBRIS CHENGDU BIOTECH, published 2021).
